Test results: patent publication US20040018529A1, “Functional cloning of genes encoding proteins/enzymes involved in proteolytic cleavage” (priority 1999, published 2004)
Peptide text beside a SMILES is read from it. * marks the point of attachment. Cbz = O=C(OCc1ccccc1)*; CH2F = FC*

Experiments:
293T cells = experiment: Apoptosis assay by visual inspection of transfected cells; assay type: cell-based, Human
Experimental: Apoptosis assays 293T cells were seeded onto 60 mm dishes at a density of 1.5×10^6 cells and, the next day, were transiently transfected with 2.5 μg plasmid DNA mixed with 15 μl lipofectamin reagent (Life Technologies, Grand Island, N.Y.). Twenty-four or 48 h after transfection, cell death was analyzed by one of the following methods. For the first assay, apoptosis was quantitated by visual inspection of cells. Cells with a shrunken, rounded, detached or blebbed appearance were scored as apoptotic. Usually 3 or more random fields were photographed and counted, and each field contained at least several hundred cells. In the case of co-transfection with green fluorescent protein (GFP)-expressing plasmid, cells were examined with an inverted fluorescent microscope, and only green cells with apoptotic features were counted. The second apoptotic assay used was the detection of nucleosomal ladder in apoptotic cells using ApoAlert LM-PCR ladder assay kit from Clontech. The procedure recommended by Clontech was followed.

[1] = biological target: modified caspase-3 containing the β-secretase cleavage site of APP of the Swedish version (expressed from plasmid pCBC1) (human); experiment: cell-based or functional assay
caspase-3 = experiment: Caspase-3 activity assay (ApoAlert CPP32/Caspase-3 Fluorescent Assay kit); assay type: cell-based, Human; conditions: 293T cells, co-transfection with pCBC1, compared with controls
Description: The protease activity of the caspase is also directly monitored in the cell extracts prepared as above. The ApoAlert® Caspase-3 assay kit, available commercially from Clontech, allows convenient fluorometric or colorimetric detection and assay of caspase-3. For example, the fluorescent kit detects the emission shift of 7-amino-4-trifluoromethyl coumarin (AFC). The AFC-substrate conjugate, DEVD-AFC, usually emits blue light (λmax=400 nm). However, upon proteolytic cleavage of the substrate by Caspase-3, free AFC fluoresces yellow-green (λmax=505 nm). Thus monitoring of emission at 505 nm in the cell extract, in relation to the uninduced control extract, allows determination of caspase activity. The activity can also be quantitated accurately and reproducibly using a standard curve established with free AFC. As described above, if there is endogenous expression of enzyme X in these cells, the caspase activity is generated in cells transfected only with pCTC1 (+) but not with pCTC1 (−).
Caspase-3 activity assay Caspase-3 activity was determined following the instructions of ApoAlert CPP32/Caspase-3 Fluorescent Assay kit (Clontech).

β-secretase = experiment: β-NTF assay (ELISA of medium of transfected 293T cells); assay type: cell-based, Human; conditions: co-transfection with the APP expression plasmid, 48 h
Experimental: β-NTF assay 293T cells were seeded onto 60 mm dishes at a density of 1.5×10^6 cells and, the next day, were transiently transfected with 2.5 μg plasmid DNA mixed with 15 μl lipofectamin reagent (Life Technologies, Grand Island, N.Y.). In the case of transfection with pAPPsw plasmid, 0.5 μg pAPPsw was mixed with 2.0 μg carrier plasmid (unrelated plasmid). Twenty-four or 48 h after transfection, medium was collected and determined for […] by ELISA method as described [Liu, 2000]

modified caspase-3 = experiment: Western blot analysis of processing of the modified caspase-3; assay type: cell-based, Human; conditions: 293T cells, co-transfection with pCBC1, compared with the control
Description: Western blot analysis Cells were collected in PBS and immediately lysed by the addition of an equal volume of 2×SDS loading buffer. After boiling and centrifugation, supernatants containing equal amount of proteins were loaded onto 14% SDS-PAGE gels. The proteins were resolved and transferred to a nylon membrane, and probed with antibodies against human caspase-3 (Santa Cruz Biotech, Santa Cruz, Calif.).

| caspase-3 activity in transfected 293T cells (caspase-3 fluorescent assay), over mock-transfected cells, 24 and 48 h [1] | Molecule | cell death caused by transfection of pCBC1 plasmids (293T cells; 10 μM inhibitor added immediately after DNA transfection) | caspase-3 activity (caspase-3) | generation of β-NTF (β-secretase) | processed caspase-3 fragment (12 kDa) (modified caspase-3) | number of apoptotic cells / cell death caused by the modified caspase-3 (293T cells; co-transfection with pCBC1, compared with controls) |
| --- | --- | --- | --- | --- | --- | --- |
| – | COC(=O)C[C@H](NC(=O)[C@H](C)NC(=O)[C@@H](NC(=O)OCc1ccccc1)C(C)C)C(=O)CF [Z-VAD.fmk, reference compound] (Cbz-Val-Ala-Asp(OMe)-CH2F) | significantly prevented cell death | – | – | – | – |
| 10 fold | endogenous β-secretase activity of human embryonic kidney 293T cells (enzyme) | – | – | – | – | – |
| – | BACE2(D110A): catalytically inactive mutant of BACE2, expressed from plasmid (protein) APELAPAPFTLPLRVAAATNRVVAPTPGPGTPAERHADGLALALEPALASPAGAANFLAMVDNLQGDSGRGYYLEMLIGTPPQKLQILVATGSSNFAVAGTPHSYIDTYFDTERSSTYRSKGFDVTVKYTQGSWTGFVGEDLVTIPKGFNTSFLVNIATIFESENFFLPGIKWNGILGLAYATLAKPSSSLETFFDSLVTQANIPNVFSMQMCGAGLPVAGSGTNGGSLVLGGIEPSLYKGDIWYTPIKEEWYYQIEILKLEIGGQSLNLDCREYNADKAIVDSGTTLLRLPQKVFDAVVEAVARASLIPEFSDGFWTGSQLACWTNSETPWSYFPKISIYLRDENSSRSFRITILPQLYIQPMMGAGLNYECYRFGISPSTNALVIGATVMEGFYVIFDRAQKRVGFAASPCAEIAGAAVSEISGPFSTEDVASNCVPAQSLSEPILWIVSYALMSVCGAILLVLIVLLLLPFRCQRRPRDPEVVNDESSLVRHRWK | – | lower caspase-3 activity than the controls | significantly inhibited the generation of β-NTF | significantly reduced | – |
| – | BACE2: BACE2 expression plasmid; BACE2 competes in vivo with β-secretase for β-site APP cleavage (protein, UniProt Q9Y5Z0 63-518, looked up) Beta-secretase 2: ALEPALASPAGAANFLAMVDNLQGDSGRGYYLEMLIGTPPQKLQILVDTGSSNFAVAGTPHSYIDTYFDTERSSTYRSKGFDVTVKYTQGSWTGFVGEDLVTIPKGFNTSFLVNIATIFESENFFLPGIKWNGILGLAYATLAKPSSSLETFFDSLVTQANIPNVFSMQMCGAGLPVAGSGTNGGSLVLGGIEPSLYKGDIWYTPIKEEWYYQIEILKLEIGGQSLNLDCREYNADKAIVDSGTTLLRLPQKVFDAVVEAVARASLIPEFSDGFWTGSQLACWTNSETPWSYFPKISIYLRDENSSRSFRITILPQLYIQPMMGAGLNYECYRFGISPSTNALVIGATVMEGFYVIFDRAQKRVGFAASPCAEIAGAAVSEISGPFSTEDVASNCVPAQSLSEPILWIVSYALMSVCGAILLVLIVLLLLPFRCQRRPRDPEVVNDESSLVRHRWK | – | lower caspase-3 activity than the controls | significantly inhibited the generation of β-NTF | significantly reduced | significantly reduced the number of apoptotic cells |
